Patent US20030103973A1 (published 2003)
Read-outs that look alike come from different tables or passages of the source.

Tests used:
[1] = target: chimeric receptor mouse FLK-1/human fms expressed on transfected 3T3 cells (C441) (mouse; human) (UniProt P35918); test: cell-based or functional assay
[2] = target: chimeric receptor mouse FLK-1/human fms expressed on transfected 3T3 cells (C441) (mouse; human) (UniProt P35918); test: saturation binding to intact C441 cells, colorimetric detection
[3] = target: T1, soluble fusion protein KDR-AP (KDR extracellular domain fused to human placental alkaline phosphatase) (human, UniProt P35968 20-764); test: BIAcore, KDR-AP immobilized
T1 construct: extracellular domain; also called immobilized KDR; KDR receptor; not shown: human placental alkaline phosphatase (vector AP-Tag)
Description: The binding kinetics of antibodies to KDR were measured using BIAcore biosensor (Pharmacia Biosensor). […] Sensorgrams were obtained at each concentration and were evaluated using a program, BIA Evaluation 2.0, to determine the rate constants kon and koff. Kd was calculated as the ratio of rate constants koff/kon.
*All rates are determined by surface plasmon resonance using BIAcore system, and are mean of at least three separate determinations.

[4] = target: T1, soluble fusion protein KDR-AP (KDR …); test: competitive ELISA: KDR-AP binding to immobilized VEGF165
KDR expressed on HUVEC = KDR expressed on HUVEC (human, UniProt P35968 20-1356); test: cell-based or functional assay
[5] = target: T1, soluble fusion protein KDR-AP (KDR …); test: BIAcore, KDR-AP immobilized; remark: listed apart in the source
Description: The binding kinetics of soluble scFv to KDR were measured using BIAcore biosensor (Pharmacia Biosensor). KDR-AP fusion protein was immobilized onto a sensor chip and soluble scFv were injected at concentrations ranging from 62.5 nM to 1000 nM. Sensorgrams were obtained at each concentration and were evaluated using a program, BIA Evaluation 2.0, to determine the rate constant kon and koff. Kd was calculated from the ratio of rate constants koff/kon.

[6] = target: T1, soluble fusion protein KDR-AP (KDR …); test: competitive VEGF blocking ELISA: KDR-AP binding to immobilized VEGF165
[7] = target: T1, soluble fusion protein KDR-AP (KDR …); test: direct binding ELISA on KDR-coated plates (printed ED50, 50% of maximum binding)
Description: In the direct binding assay, various amounts of soluble scFv were added to KDR-coated 96-well Maxi-sorp microtiter plates and incubated at room temerature for 1 h, after which the plates were washed 3 times with PBST. The plates were then incubated at room temerature for 1 h with 100 μl of mouse anti-E tag antibody followed by incubation with 100 µl of rabbit anti-mouse antibody-HRP conjugate. The plates were washed and developed following the procedure described above for the phage ELISA.

T1 sequence (P35968 20-764): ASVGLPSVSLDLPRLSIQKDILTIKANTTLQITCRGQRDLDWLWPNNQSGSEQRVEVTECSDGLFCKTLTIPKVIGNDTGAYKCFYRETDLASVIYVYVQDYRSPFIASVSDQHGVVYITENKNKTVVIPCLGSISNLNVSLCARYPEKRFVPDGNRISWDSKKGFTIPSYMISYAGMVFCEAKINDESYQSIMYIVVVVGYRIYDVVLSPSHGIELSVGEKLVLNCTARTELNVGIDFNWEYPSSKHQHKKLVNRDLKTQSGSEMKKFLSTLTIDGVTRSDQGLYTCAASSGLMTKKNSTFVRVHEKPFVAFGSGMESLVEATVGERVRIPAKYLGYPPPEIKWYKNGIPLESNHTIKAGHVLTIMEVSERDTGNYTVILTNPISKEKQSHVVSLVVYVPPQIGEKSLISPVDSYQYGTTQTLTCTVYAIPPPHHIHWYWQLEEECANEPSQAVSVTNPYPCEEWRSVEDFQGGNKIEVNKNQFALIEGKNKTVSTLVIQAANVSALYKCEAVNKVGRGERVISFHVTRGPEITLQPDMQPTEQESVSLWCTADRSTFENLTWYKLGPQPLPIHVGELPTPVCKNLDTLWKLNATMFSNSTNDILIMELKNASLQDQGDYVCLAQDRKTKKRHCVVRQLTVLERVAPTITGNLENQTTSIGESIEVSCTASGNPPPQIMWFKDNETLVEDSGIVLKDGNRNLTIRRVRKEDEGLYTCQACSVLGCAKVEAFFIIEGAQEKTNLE
Sequence of chimeric receptor mouse FLK-1/human fms expressed on transfected 3T3 cells (C441) (mouse; human) (P35918 other isoform, or with tags, fused parts or gaps mutant limits assumed): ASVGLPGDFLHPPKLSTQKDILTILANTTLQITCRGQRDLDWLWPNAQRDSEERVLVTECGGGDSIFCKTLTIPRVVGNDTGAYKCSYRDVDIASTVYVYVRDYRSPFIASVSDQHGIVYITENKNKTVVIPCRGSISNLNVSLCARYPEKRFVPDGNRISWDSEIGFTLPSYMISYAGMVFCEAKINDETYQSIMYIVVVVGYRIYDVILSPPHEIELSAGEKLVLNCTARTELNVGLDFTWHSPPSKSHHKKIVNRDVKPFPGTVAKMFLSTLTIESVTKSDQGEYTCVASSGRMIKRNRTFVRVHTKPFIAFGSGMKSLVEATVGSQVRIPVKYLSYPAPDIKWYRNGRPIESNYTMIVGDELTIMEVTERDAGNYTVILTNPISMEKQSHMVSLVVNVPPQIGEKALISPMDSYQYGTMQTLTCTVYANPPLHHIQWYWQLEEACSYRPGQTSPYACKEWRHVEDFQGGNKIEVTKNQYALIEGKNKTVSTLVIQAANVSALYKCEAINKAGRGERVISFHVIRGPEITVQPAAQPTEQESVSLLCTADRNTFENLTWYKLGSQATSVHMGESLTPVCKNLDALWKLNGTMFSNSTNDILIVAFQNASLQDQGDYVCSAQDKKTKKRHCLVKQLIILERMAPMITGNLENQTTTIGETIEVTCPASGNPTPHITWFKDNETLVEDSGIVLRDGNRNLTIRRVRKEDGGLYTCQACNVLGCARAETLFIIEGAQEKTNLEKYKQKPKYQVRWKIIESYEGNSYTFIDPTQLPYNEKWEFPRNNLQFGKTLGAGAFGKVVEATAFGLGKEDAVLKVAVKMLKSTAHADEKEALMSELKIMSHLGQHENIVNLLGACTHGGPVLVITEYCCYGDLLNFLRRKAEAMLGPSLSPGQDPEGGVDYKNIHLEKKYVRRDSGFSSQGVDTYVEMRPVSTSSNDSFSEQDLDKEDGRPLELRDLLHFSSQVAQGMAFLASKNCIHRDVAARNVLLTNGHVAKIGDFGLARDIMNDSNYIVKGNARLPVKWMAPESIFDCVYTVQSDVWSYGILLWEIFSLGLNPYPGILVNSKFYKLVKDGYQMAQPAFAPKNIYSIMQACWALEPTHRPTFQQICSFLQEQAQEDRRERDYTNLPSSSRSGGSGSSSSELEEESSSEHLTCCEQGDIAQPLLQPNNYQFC
Sequence of KDR expressed on HUVEC (P35968 20-1356): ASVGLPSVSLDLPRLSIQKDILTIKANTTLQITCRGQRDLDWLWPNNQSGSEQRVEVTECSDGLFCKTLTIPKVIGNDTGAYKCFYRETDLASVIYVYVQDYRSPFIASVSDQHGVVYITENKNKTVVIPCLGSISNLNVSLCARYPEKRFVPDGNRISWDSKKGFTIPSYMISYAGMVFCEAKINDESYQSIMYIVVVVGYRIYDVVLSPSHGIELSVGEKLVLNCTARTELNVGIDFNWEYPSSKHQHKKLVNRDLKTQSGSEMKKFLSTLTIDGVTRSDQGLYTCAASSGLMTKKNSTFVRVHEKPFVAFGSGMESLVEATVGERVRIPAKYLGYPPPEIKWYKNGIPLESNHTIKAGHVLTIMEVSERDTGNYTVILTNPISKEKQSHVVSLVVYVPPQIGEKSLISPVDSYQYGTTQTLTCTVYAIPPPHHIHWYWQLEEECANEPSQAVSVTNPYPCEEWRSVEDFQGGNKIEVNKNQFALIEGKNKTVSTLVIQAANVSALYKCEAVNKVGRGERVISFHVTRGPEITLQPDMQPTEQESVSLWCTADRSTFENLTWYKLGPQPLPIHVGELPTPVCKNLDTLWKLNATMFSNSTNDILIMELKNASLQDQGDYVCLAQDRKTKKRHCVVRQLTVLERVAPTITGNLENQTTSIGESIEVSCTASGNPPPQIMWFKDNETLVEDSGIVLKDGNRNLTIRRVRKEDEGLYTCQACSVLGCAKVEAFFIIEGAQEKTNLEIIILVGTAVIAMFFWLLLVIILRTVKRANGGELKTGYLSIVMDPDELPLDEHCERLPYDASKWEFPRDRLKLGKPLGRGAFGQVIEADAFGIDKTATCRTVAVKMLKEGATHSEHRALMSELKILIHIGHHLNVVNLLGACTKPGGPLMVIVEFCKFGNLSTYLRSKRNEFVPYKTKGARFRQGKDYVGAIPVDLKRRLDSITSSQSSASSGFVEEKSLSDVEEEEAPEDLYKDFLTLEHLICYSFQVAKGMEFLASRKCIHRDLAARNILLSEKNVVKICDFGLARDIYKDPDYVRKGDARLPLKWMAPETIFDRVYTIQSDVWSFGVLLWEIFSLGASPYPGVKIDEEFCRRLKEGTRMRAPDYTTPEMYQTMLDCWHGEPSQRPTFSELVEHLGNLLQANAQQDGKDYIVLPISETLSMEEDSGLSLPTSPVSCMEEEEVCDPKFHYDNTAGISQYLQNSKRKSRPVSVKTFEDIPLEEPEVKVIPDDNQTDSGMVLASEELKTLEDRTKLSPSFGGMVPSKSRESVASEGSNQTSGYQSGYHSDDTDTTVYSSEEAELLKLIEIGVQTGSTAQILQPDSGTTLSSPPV

B1: rat anti-mouse FLK-1 monoclonal antibody DC-101 (antibody, from another filing, rat IgG1, V domains shown)
VH: EVQLVETGGGLVQPGNSLKLSCATSGFIFSTTWMNWIRQTPGKRLEWLAQIEDKSNNYFISYSESVKGRFTISRDDSKSSVYLQMNNLKEEDTAIYYCSWKYRSNYYFDYWGQGVMVTVSS
VL: DIVLTQSPALAVSLEQRATISCKTSQNVDYYGISYLHWYQQKPGQQPKLLIYEGSNLASGIPARFSGSGSGTDFTLTIDPVEADDIVTYYCQQSKDYPYTFGAGTKLELKR
[1]
  antibody concentration giving a marked decrease in the phosphorylation of FLK-1, competitive conditions: > 0.5 µg/mL
  antibody concentration giving a marked decrease in the phosphorylation of FLK-1 by VEGF165 (40 ng/ml): > 0.5 µg/mL
  antibody concentration sufficient to inhibit receptor activation by ligand: < 1 µg/mL
  level of FLK-1/fms phosphorylation relative to the fully stimulated receptor control, antibody added with VEGF (densitometry): 40%
  level of FLK-1/fms phosphorylation relative to the fully stimulated receptor control, antibody prebound (densitometry): 6%
  prebound antibody concentration sufficient to completely inhibit receptor activation by ligand: < 1 µg/mL
[2]
  relative apparent affinity: 500 ng/mL

B2: chimeric p1C11 IgG (c-p1C11) (antibody, V domains shown)
VH: QVKLQQSGAELVGSGASVKLSCTTSGFNIKDFYMHWVKQRPEQGLEWIGWIDPENGDSDYAPKFQGKATMTADSSSNTAYLQLSSLTSEDTAVYYCNAYYGDYEGYWGQGTTVTVSS
VL: DIELTQSPAIMSASPGEKVTITCSASSSVSYMHWFQQKPGTSPKLWIYSTSNLASGVPARFSGSGSGTSYSLTISRMEAEDAATYYCQQRSSYPFTFGSGTKLEIK
notes: bivalent IgG made in COS cells; also called chimeric IgG
[3]
  Kd: 0.82 nM
  koff: 5.2e-05 s⁻¹
  kon: 63000 M⁻¹ s⁻¹
[4]
  IC50: 0.8 nM

B3: anti-KDR single chain antibody p1C11 (scFv)
scFv: QVKLQQSGAELVGSGASVKLSCTTSGFNIKDFYMHWVKQRPEQGLEWIGWIDPENGDSDYAPKFQGKATMTADSSSNTAYLQLSSLTSEDTAVYYCNAYYGDYEGYWGQGTTVTVSSGGGGSGGGGSGGGGSDIELTQSPAIMSASPGEKVTITCSASSSVSYMHWFQQKPGTSPKLWIYSTSNLASGVPARFSGSGSGTSYSLTISRMEAEDAATYYCQQRSSYPFTFGSGTKLEIK
notes: also called scFv p1C11; p1C11 scFv
KDR expressed on HUVEC
  EC50, the antibody concentration that inhibited 50% of VEGF-stimulated mitogenesis of HUVEC: ~5 nM
[5]
  Kd: 2.1 nM
  koff: 0.00023 s⁻¹
  kon: 110000 M⁻¹ s⁻¹
[3]
  Kd: 2.1 nM
  koff: 0.000227 s⁻¹
  kon: 111000 M⁻¹ s⁻¹
[4]
  IC50: 2 nM
[6]
  IC50: 3 nM
[7]
  EC50: 0.3 nM
